Laboratory results published in patent US9624506B2, “Glyphosate resistance enhancement” (Keygene N.V., priority 2011, dated 2017).
Changes are numbered by the printed parent chain. Names and notes keep the numbering of the source. “Also recorded” adds a separate entry of the source.

B1: T42M: T42M mutation in Salmonella EPSPS enzyme (protein, UniProt P07637 1-427, looked up, variant T42M)
3-phosphoshikimate …: MESLTLQPIARVDGAINLPGSKSVSNRALLLAALACGKTALMNLLDSDDVRHMLNALSALGINYTLSADRTRCDITGNGGALRAPGALELFLGNAGTAMRPLAAALCLGQNEIVLTGEPRMKERPIGHLVDSLRQGGANIDYLEQENYPPLRLRGGFTGGDIEVDGSVSSQFLTALLMTAPLAPKDTIIRVKGELVSKPYIDITLNLMKTFGVEIANHHYQQFVVKGGQQYHSPGRYLVEGDASSASYFLAAGAIKGGTVKVTGIGRKSMQGDIRFADVLEKMGATITWGDDFIACTRGELHAIDMDMNHIPDAAMTIATTALFAKGTTTLRNIYNWRVKETDRLFAMATELRKVGAEVEEGHDYIRITPPAKLQHADIGTYNDHRMAMCFSLVALSDTPVTILDPKCTAKTFPDYFEQLARMSTPA
B2: P106L: A. thaliana EPSPS with Proline at position 106 changed into Leucine (SEQ ID NO:12) (protein, listed as Arabidopsis thaliana)
chain: MAQVSRICNGVQNPSLISNLSKSSQRKSPLSVSLKTQQHPRAYPISSSWGLKKSGMTLIGSELRPLKVMSSVSTAEKASEIVLQPIREISGLIKLPGSKSLSNRILLLAALSEGTTVVDNLLNSDDINYMLDALKRLGLNVETDSENNRAVVEGCGGIFPASIDSKSDIELYLGNAGTAMRLLTAAVTAAGGNASYVLDGVPRMRERPIGDLVVGLKQLGADVECTLGTNCPPVRVNANGGLPGGKVKLSGSISSQYLTALLMSAPLALGDVEIEIVDKLISVPYVEMTLKLMERFGVSVEHSDSWDRFFVKGGQKYKSPGNAYVEGDASSASYFLAGAAITGETVTVEGCGTTSLQGDVKFAEVLEKMGCKVSWTENSVTVTGPPRDAFGMRHLRAIDVNMNKMPDVAMTLAVVALFADGPTTIRDVASWRVKETERMIAICTELRKLGATVEEGSDYCVITPPKKVKTAEIDTYDDHRMAMAFSLAACADVPITINDPGCTRKTFPDYFQVLERITKH
B3: G101A: EPSPS with Glycine at position 101 changed into Alanine (position 96 in E. coli; SEQ ID NO:17) (protein, listed as Arabidopsis thaliana)
chain: B2 chain with G177A, L182P
B4: N44D+S179N: A. thaliana EPSPS double mutant N44D and S179N (SEQ ID NO:16) (protein, listed as Arabidopsis thaliana)
chain: B2 chain with N120D, L182P, S255N
B5: N44D+P106L: A. thaliana EPSPS double mutant N44D and P106L (SEQ ID NO:13) (protein, listed as Arabidopsis thaliana)
chain: B2 chain with N120D
B6: N44D: A. thaliana EPSPS with Asparagine at position 44 changed into Aspartic Acid (SEQ ID NO:11) (protein, listed as Arabidopsis thaliana)
chain: B2 chain with N120D, L182P
B7: wild type (WT): Arabidopsis thaliana EPSPS (At2g45300), unmutated, SEQ ID NO:9/10 (protein, listed as Arabidopsis thaliana)
chain: B2 chain with L182P

Tests used:
[1] = Salmonella EPSPS; cited from earlier work
[2] = Salmonella EPSPS; cited from earlier work; remark: listed apart in the source
[3] = system: Arabidopsis thaliana; assay: Glyphosate tolerance of transgenic Arabidopsis lines (average seedling weight +Gly/-Gly); assay type: in vivo; settings: transgenic Arabidopsis lines overexpressing EPSPS gene; MS20 medium, 400 μM glyphosate, 4 weeks
Procedure: The mutated Arabidopsis EPSPS genes tested in E. coli (see Example 1) were cloned into the binary vector pEARLEYGATE100 (The Plant J. 2006; 45:616-629). Briefly, the EPSPS genes were isolated as BamHI and SacI fragments comprising the complete ORF's and then inserted into the same unique sites present in the binary vector. […] This series of binary vectors were electroporated to the Agrobacterium tumefaciens strain GV2260 and bacterial colonies were selected on LB medium containing 100 μg/ml spectinomycin, using methods known to the skilled person.
Seeds of Arabidopsis thaliana (ecotype Colombia) were sown on soil and once germinated a single seedling was placed in a 5 cm×5 cm pot and allowed to grow until the first influorescence appeared. At this stage the plants were then transformed using the floral dip method. Briefly, the Agrobacterium strains were grown overnight in 50 ml liquid LB medium containing 100 μg/ml spectinomycin at 28° C. and then this culture was centrifuged at 4000 rpm for 10 minutes. The pellets were then resuspended in a 5% sucrose solution containing 0.02% Silwet (Lehle Seeds). The Arabidopsis plants were dipped into this culture and then incubated overnight in the dark at 25° C. The plants were then allowed to grow further in the greenhouse and after 7 days the dipping procedure was repeated. The plants were then allowed to set seed which was then germinated on soil. For selection of transformed Arabidopsis seedlings, a solution of glufosinate was prepared (0.1 mg/ml glufosinate ammonium+0.005% silwet) and sprayed on the seedlings. After 7 days the surviving seedlings were identified, grown to maturity and the seeds were collected.
We performed a segregation analysis on the seed of the transgenic lines to estimate the T-DNA copy number. Seed from each of the transgenic lines was sterilized with a 2% hypochlorite solution and washed with sterile water. Approximately 100 seeds per line were then placed on MS20 medium containing 0.1 mg/ml glufosinate ammonium and the number of surviving seedlings was scored after 20 days. The lines with a single T-DNA copy that segregated […] (resistance:sensitivity) to the glufosinate were selected for further phenotyping.
Seeds from the transgenic Arabidopsis lines were sterilized and then placed on MS20 medium containing 0.1 mg/ml glufosinate ammonium and +/−400 μM glyphosate and were grown for 4 weeks. After this period the seedlings were removed from the growth plates and the average seedling weight was determined. The degree of glyphosate resistance for each line was determined by dividing the average seedling weight in the presence of glyphosate by the average seedling weight found in the absence of glyphosate.

[4] = system: E. coli; assay: Complementation assay in E. coli using A. thaliana EPSPS variants, growth in M9 medium with glyphosate; assay type: cell-based; settings: 30 mM glyphosate; for glyphosate resistance (bacterial growth, OD600 over time): E. coli BL21 expressing A. thaliana EPSPS variant, M9 medium, 1 mM IPTG, 25° C.
Source text: Each of these EPSPS variants was then cloned as a 1576 bps EcoRI-BamHI fragment into the vector pET302 NT HIS (Invitrogen, product K630203), fusing the EPSPS variants to a 6× His tag and allowing inducible protein expression with IPTG in E. coli. These constructs were introduced into the E. coli expression strain BL21 OAS (Invitrogen) for complementation assays.
E. coli is unable to grow in minimal M9 growth medium supplemented with glyphosate due to inhibition of the activity of the endogenous bacterial EPSP synthase AroA. Bacterial growth can be restored by complementation with a glyphosate resistant plant EPSPS gene. The E. coli strains containing the A. thaliana EPSPS variants were grown overnight in 10 ml LB medium containing 100 μg/ml carbenicillin (Duchefa). Strains were then diluted 4 fold in the same medium and allowed to grow for a further 4 hours. The […] of each culture was then measured and 1.5 ml culture was centrifuged at 4000 rpm for 10 minutes. The bacterial pellet was resuspended in 500 μl M9 medium (12.8 g/l Na2HPO4, 3.0 g/l KH2PO4, 0.5 g/l NaCl, 1.0 g/l NH4Cl, 2.0 g/l glucose, 0.4940 g/l MgSO4.7H2O, 15 mg/l CaCl2.2H2O, thiamine and 10 mg/l FeSO4.7H2O) used to inoculate 10 ml M9 medium containing 1 mM IPTG and 100 μg/ml carbenicillin and 30 mM glyphosate to an OD600 of 0.1. Identical cultures for each strain were also made lacking glyphosate and these were used to assess the growth of each strain without selection. The cultures were then grown at 25° C. and the OD600 was measured over time to assess bacterial growth (see FIG. 2).

[5] = E. coli EPSPS, Eschenburg et al. 2002; cited from earlier work

| Molecule | glyphosate resistance (ratio of average seedling weight +Gly/-Gly) [3] | glyphosate resistance (bacterial growth, OD600 over time) [4] | further results |
| --- | --- | --- | --- |
| B1 | – | – | lower affinity for its normal substrate (PEP) [1]: 25 fold; higher tolerance for glyphosate [2]: 26 fold |
| B2 | reasonable resistance | good level of resistance | – |
| B3 | – | – | Km of PEP [5]: increase |
| B4 | confers resistance | – | – |
| B5 | enhanced | strongly enhanced | enhancement of resistance levels ([4]; N44D combined with P106L, after 18 hours of growth): 2.5 fold |
| B6 | lead to glyphosate resistance | some resistance to glyphosate; also recorded: provides tolerance to glyphosate | – |
| B7 | – | able to complement bacterial growth at later time points | – |
